Test results reported in US20250314643A1, “FLUORESCENT COMPLEXES COMPRISING TWO RHODAMINE DERIVATIVES AND A NUCLEIC ACID MOLECULE” (CENTRE NATIONAL DE LA RECHERCHE SCIENTIFIQUE, priority 2019, published 2025).

B1: 4C10: duplicated SRB-2 variant RNA aptamer displaying 6 point mutations (nucleic acid)
chain: AGAACCCCGCUUCGGCGGUGAUGGAGAGGCGCAAGGUUAACCGCCUCAGGUUCCNNNNNNNNNNNNNNNNNNNNNNNNNNNNNNNNNNNNNNNNNNNNNNNNNNNNNNNNNNNNGGGGCCUCGCUUCGGCGAUGAUGGAGAGGCGCAAGGUUAACCGCCUCAGGUUCU
modifications: fluorophore binding aptamers; (55)..(72) N represents A, U, G or C; (73)..(114) N represents A, U, G or C or is absent
notes: duplicated SRB-2 variant RNA aptamer displaying 6 point mutations
B2: o-Coral: light-up RNA aptamer, 4C10 derivative with 6-nucleotide long linker (nucleic acid)
chain: GGGAGACAGCUAGAGUACAGGAACCCCGCUUCGGCGGUGAUGGAGAGGCGCAAGGUUAACCGCCUCAGGUUCCGGUGACGGGGCCUCGCUUCGGCGAUGAUGGAGAGGCGCAAGGUUAACCGCCUCAGGUUCUGACACGAGCACAGUGUAC
modifications: fluorophore binding aptamers
notes: light-up RNA aptamer, 4C10 derivative with 6-nucleotide long linker
B3: SRB-2: parental RNA aptamer previously developed to interact with sulforhodamine B (nucleic acid)
chain: GGGAGACAGCUAGAGUACGGAACCUCGCUUCGGCGAUGAUGGACAGGUUCCGACACGAGCACAGUGUAC
modifications: listed as RNA, chemistry not given here

Columns and labels:
[1] = Fluorescence Correlation Spectroscopy (FCS) analysis of the fluoromodules; assay type: physicochemical
[2] = Affinity measurements (Kd, fluorescence titration of Gemini-561 with RNA); assay type: binding; settings: for Kd: 40 mM potassium phosphate pH 7.5, 100 mM KCl, 1 mM MgCl2, 0.05% Tween 20, 100 nM (SRB-2) or 25 nM (4C10) Gemini-561
Protocol: The Kd value can be obtained by measuring the fluorescence intensity of the fluorophore in aqueous medium with increasing amount of the said nucleic acid. The plot of the fluorescence intensity versus the concentration of the said nucleic acid will provide the Kd value after fitting with the proper equation (example: Hill equation).
The fluorescence was measured on microplate reader (ex/em 580/620 nm, SpectraMax iD3, Molecular Devices).

[3] = Fluorescence measurement on purified RNA (Gemini-561 activation capacity); assay type: biochemical; settings: 500 nM RNA, 50 nM Gemini-561, ex/em 560/600 nm
Protocol: FIG. 6A represents Gemini-561 activation capacity of the parental SRB-2 and the evolved 4C10 variant. 500 nM of RNAs were incubated with 50 nM of Gemini-561 and the fluorescence was measured at À ex/em=560/600 nm.
FIG. 7A represents the fluorogenic capacity of SRB-2 and its evolved forms 4C10 and o-Coral. 500 nM of RNAS were incubated With 50 nM of Gemini-561 and the fluorescence was measured at X ex/em=560/600 nm. The values are the mean of 3 independent experiments, each measurement being shown as an open circle. The error bars correspond to ±1 standard deviation.
FIG. 10B represents Contribution of the dimerization and 736 the mutations to o-Coral functionality. SRB-2 aptamer was used as scaffold either in its monomeric 737 (m) or dimeric (d) form containing o-Coral linker. Indicated mutations were then implemented and the 738 different constructs tested as above.
FIG. 10C represents the identification of interacting regions. […]
1 μM purified RNA was heated for 1 min at 90° C. and cooled at 4° C. for 1 min. […] The mixture was then incubated for 10 min at 25° C. prior to measuring the fluorescence at 25° C. 011 a real-time thermocycler (ex/em 575/602 nm, MX 3005P, Agilent) or on microplate reader (ex/em 560/600 nm, SpectraMax iD3, Molecular Devices).

Molecule	Kd [2] [nM]	capacity to turn on Gemini-561 fluorescence [3]	further results
CN(C)c1ccc2c(-c3ccccc3C(=O)[O-])c3ccc(N(C)C)cc3[o+]c2c1 [Tetramethylrhodamine]	–	–	Size (hydrodynamic diameter of fluorescent specie) ([1]; fluorogen 200 nM, aptamer 1 μM): 1 nm; τcorr (correlation time) ([1]; fluorogen 200 nM, aptamer 1 μM): 0.032 ms; Brightness with respect to one molecule of the standard ([1]; standard tetramethylrhodamine for o-Coral (532 nm excitation), fluorescein for Broccoli and Corn): 1
B1	~73	an order of magnitude more fluorescent	–
B2	–	–	fluorogenicity and affinity for Gemini-561 compared with 4C10 ([2]; 6-nucleotide linker derivative of 4C10): conserved both fluorogenicity and affinity
B3	~441	poor	–
